Test results reported in patent publication US11198713B2, “Agents modulating beta-catenin functions and methods thereof” (FOG PHARMACEUTICALS, INC., priority 2017, dated 2021).
Numbered stars: 1 amine (or outer) side, 2 acyl side, 3 side chain; on linkers, the order of the positions; unused ones are H or OH. Bridge positions count the residues as written; N and C are the ends. Square brackets hold non-standard residues; d marks the D form. Primed or numbered codes have the meaning given here. MB(10) = Monomer B = PyrS, pyrrolidine stapling residue with allyl carbamate, (S)-3-amino-1-(allyloxycarbonyl)pyrrolidine-3-carboxylic acid, C=CCOC(=O)N1CC[C@@](N[*:1])(C(=O)[*:2])C1; MB(9) = Monomer B (PyrS), pyrrolidine stapling residue with N-allyloxycarbonyl (Alloc), forms a carbamate staple with R8 by olefin metathesis; 2Pal = N[C@@H](Cc1ccccn1)C(=O)O; R8 = C=CCCCCCC[C@@](C)(N)C(=O)O

T1: full-length beta-catenin (Axin site) (Homo sapiens, UniProt P35222)
T1 construct: 15 nM full-length beta-catenin, 20 nM FITC labeled peptide in buffer
T1 sequence (P35222 1-781): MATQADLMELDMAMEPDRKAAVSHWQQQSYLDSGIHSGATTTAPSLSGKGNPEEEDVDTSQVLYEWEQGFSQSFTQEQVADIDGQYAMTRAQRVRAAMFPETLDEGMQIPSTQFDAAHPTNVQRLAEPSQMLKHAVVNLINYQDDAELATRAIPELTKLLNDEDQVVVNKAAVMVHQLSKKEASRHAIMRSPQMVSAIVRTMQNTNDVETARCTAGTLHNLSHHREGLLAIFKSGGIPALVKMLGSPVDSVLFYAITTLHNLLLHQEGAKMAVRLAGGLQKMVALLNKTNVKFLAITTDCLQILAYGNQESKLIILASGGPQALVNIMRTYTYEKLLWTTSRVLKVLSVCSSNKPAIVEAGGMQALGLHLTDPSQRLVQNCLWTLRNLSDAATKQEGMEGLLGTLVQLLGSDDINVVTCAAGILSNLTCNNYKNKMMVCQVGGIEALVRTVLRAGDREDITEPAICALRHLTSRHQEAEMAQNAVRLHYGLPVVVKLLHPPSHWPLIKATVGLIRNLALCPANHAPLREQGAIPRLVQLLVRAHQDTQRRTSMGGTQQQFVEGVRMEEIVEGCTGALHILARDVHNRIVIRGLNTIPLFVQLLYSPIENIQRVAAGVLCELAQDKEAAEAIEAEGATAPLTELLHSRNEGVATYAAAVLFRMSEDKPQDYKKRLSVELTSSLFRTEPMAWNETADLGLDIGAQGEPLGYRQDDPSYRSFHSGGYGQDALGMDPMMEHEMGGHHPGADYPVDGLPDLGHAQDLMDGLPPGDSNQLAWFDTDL

T2: full-length beta-catenin (UniProt P35222 2-781, limits assumed)
T2 construct: mature; also called full-length ß-Catenin; β-catenin
T2 sequence (looked up): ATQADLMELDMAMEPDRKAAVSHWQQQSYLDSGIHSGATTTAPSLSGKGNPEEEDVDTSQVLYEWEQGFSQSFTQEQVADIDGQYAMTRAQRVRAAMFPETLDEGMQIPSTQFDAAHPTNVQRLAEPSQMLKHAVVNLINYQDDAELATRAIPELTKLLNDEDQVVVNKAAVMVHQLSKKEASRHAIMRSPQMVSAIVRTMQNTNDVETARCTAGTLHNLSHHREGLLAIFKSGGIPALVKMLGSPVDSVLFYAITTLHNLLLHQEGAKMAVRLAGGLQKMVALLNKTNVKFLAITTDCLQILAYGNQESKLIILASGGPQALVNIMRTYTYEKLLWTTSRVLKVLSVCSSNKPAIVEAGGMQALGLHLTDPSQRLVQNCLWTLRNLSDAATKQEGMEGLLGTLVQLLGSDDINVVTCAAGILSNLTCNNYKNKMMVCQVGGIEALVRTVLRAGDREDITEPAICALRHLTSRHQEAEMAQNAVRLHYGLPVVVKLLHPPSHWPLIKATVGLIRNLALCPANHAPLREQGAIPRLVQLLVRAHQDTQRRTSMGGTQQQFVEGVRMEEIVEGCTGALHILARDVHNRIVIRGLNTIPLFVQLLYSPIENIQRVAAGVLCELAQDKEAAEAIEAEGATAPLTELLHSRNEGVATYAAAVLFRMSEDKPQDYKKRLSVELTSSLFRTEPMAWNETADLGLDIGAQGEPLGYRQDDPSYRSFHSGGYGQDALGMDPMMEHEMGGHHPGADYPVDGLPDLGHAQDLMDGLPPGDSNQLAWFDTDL


Molecular target: T1, full-length beta-catenin (Axin site)
Experiment: Competition fluorescence polarization assay (Axin site probe)
Type: binding
Conditions: competition fluorescence polarization, Table 2; read-out: in vitro FP EC50
Summary of the method: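 Competition FP: 15 nM full-length β-catenin pre-incubated 5 min with 20 nM FITC-labelled stapled Axin-site peptide, then titrated peptide added (3-fold series from 5 μM) for 15 min in the dark. Buffer 50 mM Tris pH 8.0, 250 mM NaCl, 2% glycerol, 0.5 mM EDTA; duplicate reads.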

EC50 [nM]	Molecule
500 to 5000	CC[C@H](C)[C@@H]1NC(=O)[C@H](Cc2c[nH]cn2)NC(=O)[C@H](C)NC(=O)[C@H](CC(=O)O)NC(=O)[C@H](CC(C)C)NC(=O)[C@H]([C@@H](C)CC)NC(=O)[C@](C)(NC(=O)[C@H](C)NC(C)=O)CCCCCCC=CCOC(=O)N2CC[C@@](C(=O)N[C@@H](CCCNC(=N)N)C(=O)N[C@@](C)(CC(C)C)C(=O)N[C@@H](Cc3c[nH]c4ccccc34)C(N)=O)(C2)NC1=O [FP0633c, Ac-A-R8-I-L-D-A-H-I-MB-R-aMeL-W-NH2]
< 100	CC[C@H](C)[C@@H]1NC(=O)[C@H](Cc2c[nH]cn2)NC(=O)[C@H](C)NC(=O)[C@H](CC(=O)O)NC(=O)[C@H](CC(C)C)NC(=O)[C@H]([C@@H](C)CC)NC(=O)[C@](C)(NC(=O)[C@H](C)NC(C)=O)CCCCCCC=CCOC(=O)N2CC[C@@](C(=O)N[C@@H](CCCCNC(=N)N)C(=O)N[C@H](C(=O)N[C@@H](Cc3c[nH]c4ccccc34)C(N)=O)C(C)C)(C2)NC1=O [FP0634c, Ac-A-R8-I-L-D-A-H-I-MB-hArg-V-W-NH2]
100 to 500	CC[C@H](C)[C@@H]1NC(=O)[C@H](Cc2c[nH]cn2)NC(=O)[C@H](C)NC(=O)[C@H](CC(=O)O)NC(=O)[C@H](CC(C)C)NC(=O)[C@H]([C@@H](C)CC)NC(=O)[C@](C)(NC(=O)[C@H](C)NC(C)=O)CCCCCCC=CCOC(=O)N2CC[C@@](C(=O)N[C@@H](CCCCN)C(=O)N[C@H](C(=O)N[C@@H](Cc3c[nH]c4ccccc34)C(N)=O)C(C)C)(C2)NC1=O [FP0635c, Ac-A-R8-I-L-D-A-H-I-MB-K-V-W-NH2]
100 to 500	CC[C@H](C)[C@@H]1NC(=O)[C@H](Cc2c[nH]cn2)NC(=O)[C@H](C)NC(=O)[C@H](CC(=O)O)NC(=O)[C@H](CC(C)C)NC(=O)[C@H]([C@@H](C)CC)NC(=O)[C@](C)(NC(=O)[C@H](C)NC(C)=O)CCCCCCC=CCOC(=O)N2CC[C@@](C(=O)N[C@@H](CCCCNC)C(=O)N[C@H](C(=O)N[C@@H](Cc3c[nH]c4ccccc34)C(N)=O)C(C)C)(C2)NC1=O [FP0636c, Ac-A-R8-I-L-D-A-H-I-MB-lmeK-V-W-NH2]
< 100	CC[C@H](C)[C@@H]1NC(=O)[C@H](Cc2c[nH]cn2)NC(=O)[C@H](C)NC(=O)[C@H](CC(=O)O)NC(=O)[C@H](CC(C)C)NC(=O)[C@H]([C@@H](C)CC)NC(=O)[C@](C)(NC(=O)[C@H](C)NC(C)=O)CCCCCCC=CCOC(=O)N2CC[C@@](C(=O)N[C@@H](CCCNC(=N)N(C)C)C(=O)N[C@H](C(=O)N[C@@H](Cc3c[nH]c4ccccc34)C(N)=O)C(C)C)(C2)NC1=O [FP0639c, Ac-A-R8-I-L-D-A-H-I-MB-ADMA-V-W-NH2]
< 100	CC[C@H](C)[C@@H]1NC(=O)[C@H](Cc2c[nH]cn2)NC(=O)[C@H](C)NC(=O)[C@H](CC(=O)O)NC(=O)[C@H](CC(C)C)NC(=O)[C@H]([C@@H](C)CC)NC(=O)[C@](C)(NC(=O)[C@H](C)NC(C)=O)CCCCCCC=CCOC(=O)N2CC[C@@](C(=O)N[C@@H](CCCNC(=NC)NC)C(=O)N[C@H](C(=O)N[C@@H](Cc3c[nH]c4ccccc34)C(N)=O)C(C)C)(C2)NC1=O [FP0640c, Ac-A-R8-I-L-D-A-H-I-MB-SDMA-V-W-NH2]
100 to 500	CC[C@H](C)[C@@H]1NC(=O)[C@H](Cc2c[nH]cn2)NC(=O)[C@H](C)NC(=O)[C@H](CC(=O)O)NC(=O)[C@](C)(CC(C)C)NC(=O)[C@H]([C@@H](C)CC)NC(=O)[C@](C)(NC(=O)[C@H](C)NC(C)=O)CCCCCCC=CCOC(=O)N2CC[C@@](C(=O)N[C@@H](CCCNC(=N)N)C(=O)N[C@H](C(=O)N[C@@H](Cc3c[nH]c4ccccc34)C(N)=O)C(C)C)(C2)NC1=O [FP0644c, Ac-A-R8-I-aMeL-D-A-H-I-MB-R-V-W-NH2]
< 100	CC[C@H](C)[C@@H]1NC(=O)[C@H](Cc2c[nH]cn2)NC(=O)C(C)(C)NC(=O)[C@H](CC(=O)O)NC(=O)[C@H](CC(C)C)NC(=O)[C@H]([C@@H](C)CC)NC(=O)[C@](C)(NC(=O)[C@H](C)NC(C)=O)CCCCCCC=CCOC(=O)N2CC[C@@](C(=O)N[C@@H](CCCNC(=N)N)C(=O)N[C@H](C(=O)N[C@@H](Cc3c[nH]c4ccccc34)C(N)=O)C(C)C)(C2)NC1=O [FP0645c, Ac-A-R8-I-L-D-Aib-H-I-MB-R-V-W-NH2]

Molecular target: T2, full-length beta-catenin
Experiment: competition FP; NB = no binding detected
Conditions: not given
Method: In some embodiments, a competition fluorescence polarization assay is used to assess binding of provided compounds to beta-catenin. In an exemplary procedure, solutions of provided compounds, e.g., provided stapled peptides, were prepared in a buffer (e.g., 50 mM Tris pH 8.0, 250 mM NaCl, 2% glycerol, 0.5 mM EDTA, 0.02% w/v sodium azide) using a 3-fold serial dilution from 5 µM. Probe solution (15 nM full-length ß-Catenin, 20 nM FITC labeled peptide in buffer) was prepared and incubated for a period of time, e.g., 5 minutes, and the a volume, e.g., 40 µL per well plated in suitable plate, e.g., a black polystyrene 384-well plate (Corning). Equal volume of the serial diluted peptide was added to the plate and incubated protected from light for 15 minutes prior to read. Reads were performed on a Spectramax M5 (Molecular Devices) in duplicate. Suitable probe was FITC-PEG1-PQ-S5-ILD-S5-HVRRVWR (SEQ ID NO: 1) (hydrocarbon staple formed by two S5 via olefin metathesis) and/or FITC-bA-PQ-S5-ILD-S5-HVRRVWR (SEQ ID NO: 3) (hydrocarbon staple formed by two S5 via olefin metathesis). […] Another peptide, FPO217c (Ac-AR_8ILDAHIM$B5$RVW (SEQ ID NO: 280), with N-terminal proline removed and valine replaced with isoleucine compared to FP0025c) was prepared.

binding result	Molecule
no binding	AXILDAHAXRVW (not fully specified; Ac-A-R8-I-L-D-A-H-A-MB-R-V-W-NH2; carbamate staple R8/MB) [FP0409c]
no binding	Ac-A[R8]ILDA[2Pal]I[MB(9)]LVW-NH2 (staple 2-9; not fully specified; printed as Ac-A-R8-I-L-D-A-2pyr-I-MB-L-V-W-NH2) [FP0557c Isomer 1]
no binding	Ac-A[R8]ILDA[2Pal]I[MB(10)]AVW-NH2 (staple 2-9; not fully specified; printed as Ac-A-R8-I-L-D-A-2pyr-I-MB-A-V-W-NH2) [FP0554c Isomer 1]
no binding	Ac-A[R8]ILDA[2Pal]I[MB(10)]IVW-NH2 (staple 2-9; not fully specified; printed as Ac-A-R8-I-L-D-A-2pyr-I-MB-I-V-W-NH2) [FP0556c Isomer 1]
no binding	Ac-A[R8]ILDA[2Pal]I[MB(10)]FVW-NH2 (staple 2-9; not fully specified; printed as Ac-A-R8-I-L-D-A-2pyr-I-MB-F-V-W-NH2) [FP0555c Isomer 1]
no binding	Ac-A[R8]ILDAFI[MB(10)]RVW-NH2 (staple 2-9) [FP0540c]
no binding	Ac-A[R8]ILDA[2Pal]I[MB(10)]AVW-NH2 (staple 2-9; not fully specified; printed as Ac-A-R8-I-L-D-A-2pyr-I-MB-A-V-W-NH2) [FP0554c Isomer 2]
no binding	Ac-A[R8]ILDA[2Pal]I[MB(10)]IVW-NH2 (staple 2-9; not fully specified; printed as Ac-A-R8-I-L-D-A-2pyr-I-MB-I-V-W-NH2) [FP0556c Isomer 2]
no binding	Ac-A[R8]ILDA[2Pal]I[MB(10)]FVW-NH2 (staple 2-9; not fully specified; printed as Ac-A-R8-I-L-D-A-2pyr-I-MB-F-V-W-NH2) [FP0555c Isomer 2]
